The target in the assay is melanocortin 5 receptor (human) (UniProt P33032). In words: cell-based or functional assay.

This passage reports EC-50 (nM), cAMP accumulation results from patent US20220226425A1, “METHOD OF TREATING MELANOCORTIN-4 RECEPTOR PATHWAY-ASSOCIATED DISORDERS” (RHYTHM PHARMACEUTICALS, INC., priority 2015, published 2022).

melanocortin 5 receptor (human), sequence (P33032 whole entry): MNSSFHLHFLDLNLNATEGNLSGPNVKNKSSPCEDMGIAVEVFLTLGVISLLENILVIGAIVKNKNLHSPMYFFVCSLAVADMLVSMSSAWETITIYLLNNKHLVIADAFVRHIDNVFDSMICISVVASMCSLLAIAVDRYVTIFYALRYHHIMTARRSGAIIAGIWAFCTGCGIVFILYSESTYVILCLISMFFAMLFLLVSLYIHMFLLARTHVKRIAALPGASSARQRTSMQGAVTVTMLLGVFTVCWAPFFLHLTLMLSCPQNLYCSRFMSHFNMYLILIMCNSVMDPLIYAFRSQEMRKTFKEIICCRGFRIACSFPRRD

As to RM-493 (peptide), the EC-50 (nM), cAMP accumulation worked out at 1680 nM.
